Test results as given in patent US20040014072, “Novel dna synthase” (published 2004).

T1: p41 (Pyrococcus furiosus, UniProt Q9P9H1 SEQ:1-347)
T1 sequence: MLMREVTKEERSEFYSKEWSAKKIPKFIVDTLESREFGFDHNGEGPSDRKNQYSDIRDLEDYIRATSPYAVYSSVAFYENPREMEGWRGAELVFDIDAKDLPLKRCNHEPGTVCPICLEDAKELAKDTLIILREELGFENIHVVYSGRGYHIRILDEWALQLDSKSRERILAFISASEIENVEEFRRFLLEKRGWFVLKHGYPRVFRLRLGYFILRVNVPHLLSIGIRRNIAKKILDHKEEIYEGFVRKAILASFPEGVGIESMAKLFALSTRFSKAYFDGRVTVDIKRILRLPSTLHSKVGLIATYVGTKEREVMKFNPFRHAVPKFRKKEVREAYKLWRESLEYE

T2: p46 (Pyrococcus furiosus, UniProt Q8U4H7 SEQ:1-396)
T2 sequence: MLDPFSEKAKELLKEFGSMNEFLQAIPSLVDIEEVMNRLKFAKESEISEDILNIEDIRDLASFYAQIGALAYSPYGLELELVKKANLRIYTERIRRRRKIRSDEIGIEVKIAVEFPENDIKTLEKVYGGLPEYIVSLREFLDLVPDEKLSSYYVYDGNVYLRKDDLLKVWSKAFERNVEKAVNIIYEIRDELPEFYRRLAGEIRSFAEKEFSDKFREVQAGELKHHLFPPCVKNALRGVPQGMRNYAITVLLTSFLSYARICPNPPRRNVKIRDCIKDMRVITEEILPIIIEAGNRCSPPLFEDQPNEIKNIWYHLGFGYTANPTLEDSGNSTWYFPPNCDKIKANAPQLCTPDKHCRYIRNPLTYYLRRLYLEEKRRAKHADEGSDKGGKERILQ

T3: p41-p46 complex (DNA primase/polymerase) (Pyrococcus furiosus, UniProt Q9P9H1;Q8U4H7 SEQ:1-347,SEQ:1-396)
T3 sequence 1: T1 sequence
T3 sequence 2: T2 sequence

B1: 49-mer annealed to complementary 49-mer (dsDNA)
DNA 1: AGCTACCATGCCTGCACGAATTAAGCAATTCGTAATCATGGTCATAGCT
DNA 2: AGCTATGACCATGATTACGAATTGCTTAATTCGTGCAGGCATGGTAGCT

What was measured:
p41 = biological target: T1, p41; test: EMSA; no band shift for p41 alone, data not shown; details: tags: N-terminal His6, label: 5'-32P
Method: (§1) The gel-shift assey was used to detect binding activity that binds enzyme to DNA. 49 chain-length oligodeoxynuclotide, 5′-d[…] GCT-3′ was labeled with ³²P at 5′ terminal. Then the chain was used for gel-shift assey with itself or annealed with 49 or 17 chain length complementary oligodeoxynuclotide. With these three kinds of DNA, and the proteins were mixed in variety of concentrations in gel-shift assey buffer (50 mM Tris.Cl, pH8.0, 10 mM MgCl₂, 20 mM KCl, and 1 mM β-mercaptoethanol). The mixtures were left for 5 minutes under temperature of 55° C. and separated by electrophoreting with 1% agarose gel. The gel was processed by 0.1×TAE buffer (4 mM Tris-Acetate, pH8.0, 0.1 mM EDTA) and electrophoreted with same buffer. Autoradiography after the electrophoration was shown in FIG. 5. p41-p46 complex bound to all types of DNA and shifted the band as the complex.

p46 = biological target: T2, p46; test: EMSA; no band shift for p46 alone, data not shown; details: label: 5'-32P
Method: as §1

[1] = biological target: T3, p41-p46 complex (DNA primase/polymerase); test: EMSA; 50 mM Tris-Cl pH 8.0, 10 mM MgCl2, 20 mM KCl, 55 C; details: tags: N-terminal His6 on p41, p46 untagged, label: 5'-32P
Method: as §1

Row | Binder | binding result (p41) | binding result (p46) | binding result [1] | binding result (p41; full duplex) | binding result (p46; full duplex) | binding result ([1]; full duplex)
1 | AGCTACCATGCCTGCACGAATTAAGCAATTCGTAATCATGGTCATAGCT (ssDNA) [49-mer oligodeoxynucleotide] | no binding | no binding | binds | – | – | –
2 | B1 | – | – | – | no binding | no binding | binds
